The values that follow come from article PMC8297411 (Nature, 2021).

Like-named read-outs stand apart in the source and are kept apart here.

Holding throughout (experiment): cryo-EM structure
The target in series [1] is VP5* of S567C-A590C VP4 (foot-locked mutant), on recoated TLPs (rhesus rotavirus (RRV, G3 serotype)).
In series [2] the target is VP6 of rhesus rotavirus, in DLPs and TLPs (rhesus rotavirus (RRV, G3 serotype)).
For series [3] the target is unchanged. This is another data set of the same source.
Series [4] has the same target. The source holds these as a separate data set.
Series [5] deals with the molecule itself.
Series [6] concerns the molecule itself. The source holds these as a separate data set.
The target in series [7] is VP5* on native RRV TLPs (rhesus rotavirus (RRV, G3 serotype), UniProt P12473 248-776).

Regarding “VP5* of S567C-A590C VP4 (foot-locked mutant), on recoated TLPs (domain or fragment)”, the stoichiometry N – broadly, the number of molecules, sites or subunits per partner or assembly – in series [1] is 3.
Take “VP6 of rhesus rotavirus, in DLPs and TLPs (natural protein)”: the stoichiometry N in series [2], in series [3] and in series [4] was 3 each time.

B1: VP5* (C-terminal trypsin cleavage fragment of rhesus rotavirus VP4), wild type, on recoated TLPs (domain or fragment, rhesus rotavirus (RRV, G3 serotype), UniProt P12473 248-776, looked up)
chain: AQANEDIVVSKTSLWKEMQYNRDITIRFKFASSIVKSGGLGYKWSEISFKPANYQYTYTRDGEDVTAHTTCSVNGMNDFNFNGGSLPTDFIISRYEVIKENSYVYVDYWDDSQAFRNMVYVRSLAANLNSVICTGGDYSFALPVGQWPVMTGGAVSLHSAGVTLSTQFTDFVSFNSLRFRFRLTVEEPSFSITRTRVGGLYGLPAAYPNNGKEYYEVAGRLSLISLVPSNDDYQTPITNSVTVRQDLERQLGELREEFNALSQEIAMSQLIYLALLPLDMFSMFSGIKSTIDAAKSMATSVMKKFKKSGLANSVSTLTDSLSDAASSISRGASIRSVGSSASAWTDVSTQITDVSSSVSSISTQTSTISRRLRLKEMATQTEGMNFDDISAAVLKTKIDRSTQISPNTLPDIVTEASEKFIPNRAYRVINNDEVFEAGTDGRYFAYRVETFDEIPFDVQKFADLVTDSPVISAIIDFKTLKNLNDNYGISRQQAFNLLRSDPRVLREFINQDNPIIRNRIEQLIMQCRL
On to B1, for which, in series [5], the “stoichiometry N” value is 3.

B2: VP7 of rhesus rotavirus, recombinant, wild type (natural protein, rhesus rotavirus (RRV, G3 serotype), UniProt P12476 51-326, looked up)
chain: QNYGINLPITGSMDTAYANSTQEETFLTSTLCLYYPTEAATEINDNSWKDTLSQLFLTKGWPTGSVYFKEYTDIASFSVDPQLYCDYNVVLMKYDATLQLDMSELADLILNEWLCNPMDITLYYYQQTDEANKWISMGSSCTIKVCPLNTQTLGIGCLTTDTATFEEVATAEKLVITDVVDGVNHKLDVTTATCTIRNCKKLGPRENVAVIQVGGSDVLDITADPTTAPQTERMMRINWKKWWQVFYTVVDYVNQIIQAMSKRSRSLNSAAFYYRI
As to B2, the “stoichiometry N” value in series [6] amounted to 3.

B3: VP7 on native RRV TLPs (natural protein, rhesus rotavirus (RRV, G3 serotype), UniProt P12476 51-326, looked up)
chain: QNYGINLPITGSMDTAYANSTQEETFLTSTLCLYYPTEAATEINDNSWKDTLSQLFLTKGWPTGSVYFKEYTDIASFSVDPQLYCDYNVVLMKYDATLQLDMSELADLILNEWLCNPMDITLYYYQQTDEANKWISMGSSCTIKVCPLNTQTLGIGCLTTDTATFEEVATAEKLVITDVVDGVNHKLDVTTATCTIRNCKKLGPRENVAVIQVGGSDVLDITADPTTAPQTERMMRINWKKWWQVFYTVVDYVNQIIQAMSKRSRSLNSAAFYYRI
On to B3, for which, in series [7], the binding result was “binds”.
